The values below are quoted from earlier work in PMC8300624.

Like-named read-outs stand apart in the source and are kept apart here.

Broadly, the Kd is the concentration at which binding is half-saturated.

The target in data set [1] is ASK1 TBD (Homo sapiens) (UniProt Q99683).
Data set [2] shares this target. The source holds these as a separate data set.

Chain of ASK1 TBD (Homo sapiens) (Q99683 88-302): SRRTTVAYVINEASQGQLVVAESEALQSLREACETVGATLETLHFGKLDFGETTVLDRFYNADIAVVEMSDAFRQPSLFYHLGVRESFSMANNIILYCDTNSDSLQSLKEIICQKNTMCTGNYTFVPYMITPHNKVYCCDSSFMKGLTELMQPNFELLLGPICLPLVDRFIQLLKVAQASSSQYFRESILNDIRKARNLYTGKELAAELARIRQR
Chain of Thioredoxin 1 (P10599 2-105): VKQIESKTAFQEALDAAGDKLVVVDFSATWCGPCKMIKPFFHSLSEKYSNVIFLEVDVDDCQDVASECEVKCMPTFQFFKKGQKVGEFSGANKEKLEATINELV

Thioredoxin 1 (from UniProt P10599): the equilibrium dissociation constant (Kd) was 4000 nM with ASK1 TBD (Homo sapiens) [1] and 300 nM in the data set with ASK1 TBD (Homo sapiens) [2].
